Assay results published in publication PMC8763920, “Unprotected peptide macrocyclization and stapling via a fluorine-thiol displacement reaction” (Nature Communications, 2022).
*1 amine or outer side, *2 acyl side, *3 side chain or, on linkers, in order; H or OH if unused. Where a SMILES comes first, the peptide text is derived from it. Bridges are numbered along the chain shown (N, C = ends). [ ]: non-standard residue; d: D form. X3 = O=C(CSCCCCCCCCSCC(=O)[*:2])[*:1]; X2 = O=C(CSCCCCCCCSCC(=O)[*:2])[*:1]; X1 = O=C(CSCCCCCCSCC(=O)[*:2])[*:1]; X4 = O=C(CSCCCCCSCC(=O)[*:2])[*:1]; S5 = C=CCCC[C@](C)(N)C(=O)O; dDap = NC[C@@H](N)C(=O)O; Dap = NC[C@H](N)C(=O)O

assay: circular dichroism; conditions: water; pH ns; 25 °C; 70 uM

Row | Structure (SMILES) | helicity
1 | CC[C@H](C)[C@@H]1NC(=O)[C@@](C)(NC(=O)[C@H](CCC(=O)O)NC(=O)[C@@H]2CCCN2C(=O)[C@H](CC(N)=O)NC(=O)[C@H](CCC(=O)O)NC(C)=O)CCCC=CCCC[C@@](C)(C(=O)N[C@@H](Cc2c[nH]cn2)C(=O)N[C@H](C(=O)N[C@@H](CCC(N)=O)C(=O)N[C@@H](CCCNC(=N)N)C(=O)N[C@H](C(=O)N[C@@H](CCSC)C(N)=O)C(C)C)C(C)C)NC(=O)[C@H](CC(=O)O)NC(=O)[C@H](CC(C)C)NC1=O (Ac-ENPE[S5]ILD[S5]HVQRVM-NH2; staple 5-9) | 48%
2 | CC[C@H](C)[C@@H]1NC(=O)[C@H](NC(=O)[C@H](CCC(=O)O)NC(=O)[C@@H]2CCCN2C(=O)[C@H](CC(N)=O)NC(=O)[C@H](CCC(=O)O)NC(C)=O)CNC(=O)CSCCCCCCCSCC(=O)NC[C@@H](C(=O)N[C@@H](Cc2c[nH]cn2)C(=O)N[C@H](C(=O)N[C@@H](CCC(N)=O)C(=O)N[C@@H](CCCNC(=N)N)C(=O)N[C@H](C(=O)N[C@@H](CCSC)C(N)=O)C(C)C)C(C)C)NC(=O)[C@H](CC(=O)O)NC(=O)[C@H](CC(C)C)NC1=O (Ac-ENPE[dDap]ILD[Dap]HVQRVM-NH2; linker 5-9 via X2) | 19%
3 | CC[C@H](C)[C@@H]1NC(=O)[C@H](NC(=O)[C@H](CCC(=O)O)NC(=O)[C@@H]2CCCN2C(=O)[C@H](CC(N)=O)NC(=O)[C@H](CCC(=O)O)NC(C)=O)CNC(=O)CSCCCCCCCCSCC(=O)NC[C@@H](C(=O)N[C@@H](Cc2c[nH]cn2)C(=O)N[C@H](C(=O)N[C@@H](CCC(N)=O)C(=O)N[C@@H](CCCNC(=N)N)C(=O)N[C@H](C(=O)N[C@@H](CCSC)C(N)=O)C(C)C)C(C)C)NC(=O)[C@H](CC(=O)O)NC(=O)[C@H](CC(C)C)NC1=O (Ac-ENPE[dDap]ILD[Dap]HVQRVM-NH2; linker 5-9 via X3) | 5%
4 | CC[C@H](C)[C@@H]1NC(=O)[C@H](NC(=O)[C@H](CCC(=O)O)NC(=O)[C@@H]2CCCN2C(=O)[C@H](CC(N)=O)NC(=O)[C@H](CCC(=O)O)NC(C)=O)CNC(=O)CSCCCCCCSCC(=O)NC[C@H](C(=O)N[C@@H](Cc2c[nH]cn2)C(=O)N[C@H](C(=O)N[C@@H](CCC(N)=O)C(=O)N[C@@H](CCCNC(=N)N)C(=O)N[C@H](C(=O)N[C@@H](CCSC)C(N)=O)C(C)C)C(C)C)NC(=O)[C@H](CC(=O)O)NC(=O)[C@H](CC(C)C)NC1=O (Ac-ENPE[dDap]ILD[dDap]HVQRVM-NH2; linker 5-9 via X1) | 28%
5 | CC[C@H](C)[C@@H]1NC(=O)[C@H](NC(=O)[C@H](CCC(=O)O)NC(=O)[C@@H]2CCCN2C(=O)[C@H](CC(N)=O)NC(=O)[C@H](CCC(=O)O)NC(C)=O)CNC(=O)CSCCCCCCCSCC(=O)NC[C@H](C(=O)N[C@@H](Cc2c[nH]cn2)C(=O)N[C@H](C(=O)N[C@@H](CCC(N)=O)C(=O)N[C@@H](CCCNC(=N)N)C(=O)N[C@H](C(=O)N[C@@H](CCSC)C(N)=O)C(C)C)C(C)C)NC(=O)[C@H](CC(=O)O)NC(=O)[C@H](CC(C)C)NC1=O (Ac-ENPE[dDap]ILD[dDap]HVQRVM-NH2; linker 5-9 via X2) | 31%
6 | CC[C@H](C)[C@@H]1NC(=O)[C@H](NC(=O)[C@H](CCC(=O)O)NC(=O)[C@@H]2CCCN2C(=O)[C@H](CC(N)=O)NC(=O)[C@H](CCC(=O)O)NC(C)=O)CNC(=O)CSCCCCCCCCSCC(=O)NC[C@H](C(=O)N[C@@H](Cc2c[nH]cn2)C(=O)N[C@H](C(=O)N[C@@H](CCC(N)=O)C(=O)N[C@@H](CCCNC(=N)N)C(=O)N[C@H](C(=O)N[C@@H](CCSC)C(N)=O)C(C)C)C(C)C)NC(=O)[C@H](CC(=O)O)NC(=O)[C@H](CC(C)C)NC1=O (Ac-ENPE[dDap]ILD[dDap]HVQRVM-NH2; linker 5-9 via X3) | 25%
7 | CC[C@H](C)[C@@H]1NC(=O)[C@H](NC(=O)[C@H](CCC(=O)O)NC(=O)[C@@H]2CCCN2C(=O)[C@H](CC(N)=O)NC(=O)[C@H](CCC(=O)O)NC(C)=O)CNC(=O)CSCCCCCSCC(=O)NC[C@H](C(=O)N[C@@H](Cc2c[nH]cn2)C(=O)N[C@H](C(=O)N[C@@H](CCC(N)=O)C(=O)N[C@@H](CCCNC(=N)N)C(=O)N[C@H](C(=O)N[C@@H](CCSC)C(N)=O)C(C)C)C(C)C)NC(=O)[C@H](CC(=O)O)NC(=O)[C@H](CC(C)C)NC1=O (Ac-ENPE[dDap]ILD[dDap]HVQRVM-NH2; linker 5-9 via X4) | 14%
